Biological target: T1, GST-tagged KLHL18 (human, UniProt O94889 1-574)
T1 sequence (looked up): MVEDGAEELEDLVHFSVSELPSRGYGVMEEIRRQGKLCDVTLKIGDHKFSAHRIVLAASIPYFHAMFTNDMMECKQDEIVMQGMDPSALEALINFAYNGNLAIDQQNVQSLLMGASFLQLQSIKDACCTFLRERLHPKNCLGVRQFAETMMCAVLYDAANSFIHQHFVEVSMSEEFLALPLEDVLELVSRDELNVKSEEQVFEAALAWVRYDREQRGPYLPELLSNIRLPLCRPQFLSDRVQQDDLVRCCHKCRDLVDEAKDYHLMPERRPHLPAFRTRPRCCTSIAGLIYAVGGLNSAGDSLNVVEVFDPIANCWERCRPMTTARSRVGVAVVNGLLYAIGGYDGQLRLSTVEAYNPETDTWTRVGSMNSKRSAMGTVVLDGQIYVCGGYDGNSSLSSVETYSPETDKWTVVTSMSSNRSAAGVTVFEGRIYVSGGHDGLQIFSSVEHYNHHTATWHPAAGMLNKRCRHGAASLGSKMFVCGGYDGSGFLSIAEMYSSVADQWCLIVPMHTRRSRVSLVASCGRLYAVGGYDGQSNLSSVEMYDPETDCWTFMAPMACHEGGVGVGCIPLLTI
Assay: pull-down

B1: histidine-tagged Aurora-A (natural protein, human, UniProt O14965 1-403, looked up)
chain: MDRSKENCISGPVKATAPVGGPKRVLVTQQFPCQNPLPVNSGQAQRVLCPSNSSQRIPLQAQKLVSSHKPVQNQKQKQLQATSVPHPVSRPLNNTQKSKQPLPSAPENNPEEELASKQKNEESKKRQWALEDFEIGRPLGKGKFGNVYLAREKQSKFILALKVLFKAQLEKAGVEHQLRREVEIQSHLRHPNILRLYGYFHDATRVYLILEYAPLGTVYRELQKLSKFDEQRTATYITELANALSYCHSKRVIHRDIKPENLLLGSAGELKIADFGWSVHAPSSRRTTLCGTLDYLPPEMIEGRMHDEKVDLWSLGVLCYEFLVGKPPFEANTYQETYKRISRVEFTFPDFVTEGARDLISRLLKHNPSQRPMLREVLEHPWITANSSKPSNCQNKESASKQS
binding result: binds
